# B1: Abp1 WT (protein, UniProt P15891 2-592, looked up)
# Actin-binding protein: ALEPIDYTTHSREIDAEYLKIVRGSDPDTTWLIISPNAKKEYEPESTGSSFHDFLQLFDETKVQYGLARVSPPGSDVEKIIIIGWCPDSAPLKTRASFAANFAAVANNLFKGYHVQVTARDEDDLDENELLMKISNAAGARYSIQTSSKQQGKASTPPVKKSFTPSKSPAPVSKKEPVKTPSPAPAAKISSRVNDNNDDDDWNEPELKERDFDQAPLKPNQSSYKPIGKIDLQKVIAEEKAKEDPRLVQKPTAAGSKIDPSSDIANLKNESKLKRDSEFNSFLGTTKPPSMTESSLKNDDDKVIKGFRNEKSPAQLWAERKAKQNSGNAETKAEAPKPEVPEDEPEGEPDVKDLKSKFEGLAASEKEEEEMENKFAPPPKKSEPTIISPKPFSKPQEPVKAEEAEQPKTDYKKIGNPLPGMHIEADNEEEPEENDDDWDDDEDEAAQPPLPSRNVASGAPVQKEEPEQEEIAPSLPSRNSIPAPKQEEAPEQAPEEEIEEEAEEAAPQLPSRSSAAPPPPPRRATPEKKPKENPWATAEYDYDAAEDNELTFVENDKIINIEFVDDDWWLGELEKDGSKGLFPSNYVSLGN
# B2: Bzz1 WT (protein, UniProt P38822 1-633, looked up)
# Protein BZZ1: MSADLSIGNEIKDSFKETHKWVQNNLKWLKDIEQFYRERAKLEKDYSERLSRLSAEYFNKKSSTSVPISVGDTPTTTPGSIEAAGVVAWNEILSQTDMISKDHDQLSTDFENHVANQLSGLFTKLDMTLSKINGFNNDMVNKKDNIYHELEKAKKDYDEACSTMEMARNRYTKASNDRNKKKLDEKEMEMNKCKNEYLIKINQANRTKDKYYFQDVPEVLDLLQDVNEAKTLFLNDLWLKAASVENDLGANVSKRLQAANSVVKQNKPSLNTAIFIKHNLKNWKEPQDFVYKPSPVWHDDEKFAVPSSLEVEDLRIKLAKAENDYNSLQDKTQNELSKLSTLNKIKHEMKTNEDNINATKFYDTLKEYLNVVSPFTSHETLKLQAEVQIESIQNNVPEEYDLSTDNIDLSKTKKKSGIFSKFKHNILNVDSKPSSGGSTGNGNGGPLHITSLFNTSRRTRLGSAPNNAGEDSDNNSIRTTSTNNTKKTTQNSSDDGKNKVLYAYVQKDDDEITITPGDKISLVARDTGSGWTKINNDTTGETGLVPTTYIRISSAATVKANDRGPAPEVPPPRRSTLPVRTMEAIYAYEAQGDDEISIDPGDIITVIRGDDGSGWTYGECDGLKGLFPTSYCK
# B3: Bem1 WT (protein, UniProt P29366 1-551, looked up)
# Bud emergence protein 1: MLKNFKLSKRDSNGSKGRITSADISTPSHDNGSVIKHIKTVPVRYLSSSSTPVKSQRDSSPKNRHNSKDITSPEKVIKAKYSYQAQTSKELSFMEGEFFYVSGDEKDWYKASNPSTGKEGVVPKTYFEVFDRTKPSSVNGSNSSSRKVTNDSLNMGSLYAIVLYDFKAEKADELTTYVGENLFICAHHNCEWFIAKPIGRLGGPGLVPVGFVSIIDIATGYATGNDVIEDIKSVNLPTVQEWKSNIARYKASNISLGSVEQQQQQSITKPQNKSAKLVDGELLVKASVESFGLEDEKYWFLVCCELSNGKTRQLKRYYQDFYDLQVQLLDAFPAEAGKLRDAGGQWSKRIMPYIPGPVPYVTNSITKKRKEDLNIYVADLVNLPDYISRSEMVHSLFVVLNNGFDREFERDENQNNIKTLQENDTATFATASQTSNFASTNQDNTLTGEDLKLNKKLSDLSLSGSKQAPAQSTSGLKTTKIKFYYKDDIFALMLKGDTTYKELRSKIAPRIDTDNFKLQTKLFDGSGEEIKTDSQVSNIIQAKLKISVHDI
# B4: Sla1 1|2|3: WT Sla1 (Sla1-GFP in imaging) (protein, UniProt P32790 1-1244, looked up)
# Actin cytoskeleton-regulatory …: MTVFLGIYRAVYAYEPQTPEELAIQEDDLLYLLQKSDIDDWWTVKKRVIGSDSEEPVGLVPSTYIEEAPVLKKVRAIYDYEQVQNADEELTFHENDVFDVFDDKDADWLLVKSTVSNEFGFIPGNYVEPENGSTSKQEQAPAAAEAPAATPAAAPASAAVLPTNFLPPPQHNDRARMMQSKEDQAPDEDEEGPPPAMPARPTATTETTDATAAAVRSRTRLSYSDNDNDDEEDDYYYNSNSNNVGNHEYNTEYHSWNVTEIEGRKKKKAKLSIGNNKINFIPQKGTPHEWSIDKLVSYDNEKKHMFLEFVDPYRSLELHTGNTTTCEEIMNIIGEYKGASRDPGLREVEMASKSKKRGIVQYDFMAESQDELTIKSGDKVYILDDKKSKDWWMCQLVDSGKSGLVPAQFIEPVRDKKHTESTASGIIKSIKKNFTKSPSRSRSRSRSKSNANASWKDDELQNDVVGSAAGKRSRKSSLSSHKKNSSATKDFPNPKKSRLWVDRSGTFKVDAEFIGCAKGKIHLHKANGVKIAVAADKLSNEDLAYVEKITGFSLEKFKANDGSSSRGTDSRDSERERRRRLKEQEEKERDRRLKERELYELKKARELLDEERSRLQEKELPPIKPPRPTSTTSVPNTTSVPPAESSNNNNSSNKYDWFEFFLNCGVDVSNCQRYTINFDREQLTEDMMPDINNSMLRTLGLREGDIVRVMKHLDKKFGRENIASIPTNATGNMFSQPDGSLNVATSPETSLPQQLLPQTTSPAQTAPSTSAETDDAWTVKPASKSESNLLSKKSEFTGSMQDLLDLQPLEPKKAAASTPEPNLKDLEPVKTGGTTVPAAPVSSAPVSSAPAPLDPFKTGGNNILPLSTGFVMMPMITGGDMLPMQRTGGFVVPQTTFGMQSQVTGGILPVQKTGNGLIPISNTGGAMMPQTTFGAAATVLPLQKTGGGLIPIATTGGAQFPQTSFNVQGQQQLPTGSILPVQKTANGLISANTGVSMPTVQRTGGTMIPQTSFGVSQQLTGGAMMTQPQNTGSAMMPQTSFNAVPQITGGAMMPQTSFNALPQVTGGAMMPLQRTGGALNTFNTGGAMIPQTSFSSQAQNTGGFRPQSQFGLTLQKTGGIAPLNQNQFTGGAMNTLSTGGVLQQQQPQTMNTFNTGGVMQELQMMTTFNTGGAMQQPQMMNTFNTDGIMQQPQMMNTFNTGGAMQQPQQQALQNQPTGFGFGNGPQQSRQANIFNATASNPFGF
# modifications: GFP tag in imaging
# Columns and labels:
# [1] = test system: SH3-deleted bait proteins (1xFLAG); assay: Western blot expression level of SH3-deleted baits (Fig. S1F-G); type: cell-based, Saccharomyces cerevisiae; settings: Western blot Flag signal, 1xFLAG-tagged WT or SH3-deleted bait; sheet FigS1F-G
# Method: Precultures of yeast cells expressing baits fused with the DHFR F[1,2]-FLAG were grown overnight at 30 °C with agitation in synthetic complete medium. The next day, cells were expanded in synthetic complete medium to reach their exponential phase (OD600 of around 1.0), pelleted, and frozen at −80 °C. The equivalent of fifty OD600 of cells was resuspended in ice-cold yeast lysis buffer (10 mM Tris-HCl pH 7.4, 150 mM NaCl, 0.5 mM EDTA (Millipore Sigma), 1% Triton X-100 (Millipore Sigma), and one cOmplete Mini Protease Inhibitor Cocktail (Millipore Sigma) per 10 mL) with […] glass beads (Millipore Sigma) and disrupted at 4 °C by 10 cycles of 2 min vortexing and 2 min cooldown. The equivalent of […] of lysed cells was used for the immunoprecipitation of the bait proteins using FLAG-M2 agarose beads (Millipore Sigma). The beads were incubated with the cell lysates for 120 min at 4 °C with a slow rotation, followed by three washes with the yeast lysis buffer.
# Protein extracts and affinity-purified baits from yeast and human lysed cells were migrated on 10% polyacrylamide gels. The separated proteins were then transferred to nitrocellulose membranes. Validation of correct protein loading was done with ponceau staining of the membranes. Before the primary antibody incubations, membranes were blocked in 5% milk. Protein signals were detected on an Amersham Imager 600RGB (GE Healthcare) following the incubation of the membranes with the appropriate HRP-conjugated secondary antibodies and the Clarity Western ECL Substrate (Bio-Rad). The antibodies used in this study are M2-HRP (A8592, Sigma, 1/50,000), rabbit anti-FLAG (F7425, Sigma, 1/1000), PAK (SC-881, Santa Cruz, 1/200), p130cas/BCAR1 (SC-860, Santa Cruz, 1/200), actin (Cell Signaling Technology, 1/2000), anti-mouse HRP (Cell Signaling Technology, 1/10,000) and anti-rabbit HRP (Cell Signaling Technology, 1/10,000). The quantification of the WB signals was performed with the Amersham Imager 600 analysis software (GE Healthcare).
# Sla1-GFP foci = assay: Live imaging of endocytosis, Sla1-GFP foci tracking (Fig. 4E-H, S5E-I); type: cell-based, Saccharomyces cerevisiae; settings: for mean effective distance towards centroid: n 3286
# Method: Overnight cultures of Sla1-GFP cells were diluted to an OD600 of 0.15 and grown in synthetic complete medium without tryptophan until they reached an OD600 of ~0.4–0.5 at 30 °C. The cells were then seeded on concanavalin A 0.05 mg/mL (Millipore Sigma) coated 8-well glass-bottom chamber slides (Sarstedt). Image acquisition was performed using a Perkin Elmer UltraVIEW confocal spinning disk unit attached to a Nikon Eclipse TE2000-U inverted microscope equipped with a Plan Apochromat DIC H 100×/1.4 oil objective (Nikon), and a Hamamatsu Orca Flash 4.0 LT + camera. Imaging was done at 25 °C in an environmental chamber. The software NIS-Elements (Nikon) was used for image capture. For each field, one brightfield and a series of fluorescence (GFP) images were taken. Cells were excited with a 488 nm laser and emission was filtered with a 530/630 nm filter. GFP time laps were acquired continuously at a rate of 1 frame/sec for 3 min.
# Bright-field images were used to segment cells using YeastSpotter[60]. Cells were filtered based on circularity, solidity, and the normalized difference between minor and major axis lengths to remove poorly detected cells. Out-of-focus cells were also filtered out based on size and brightness. The centroids of the segmented cells were used to identify the locations of each cell in the image using Scikit-Image[61]. The location of each cell was used to isolate individual cell time-frames of fluorescence (GFP) images. Each cell time frame of the fluorescence images was processed through a python-based single-particle tracking tool—Trackpy[62]. Trackpy detected the locations of Sla1-GFP positive foci in each frame and linked them together to provide particle-wise trajectories. Trajectories detected in less than ten frames were considered spurious and were filtered out. Segments of the trajectories spuriously indicating movement of the particles back to the cell membrane were trimmed. The preprocessed trajectories of the particles were then used for the calculation of distances using the spatial distance module of “SciPy”[63]. The python-based code used for the analysis of microscopy images is included in the endocytosis module of “htsimaging” package.
# [2] = Fig4H,S5G, SLA1 SH3-shuffled or -deleted strain
molecule,measurement,setting,value
B1,Flag,[1],9263
B2,Flag,[1],215050
B3,Flag,[1],104455
B4,complete,Sla1-GFP foci; [2],23.1408
same,incomplete,Sla1-GFP foci; [2],3.31
same,mean effective distance towards centroid,Sla1-GFP foci; time 0,0
same,mean effective distance towards centroid,Sla1-GFP foci; time 1,1.1628
same,mean effective distance towards centroid,Sla1-GFP foci; time 2,1.132
same,mean effective distance towards centroid,Sla1-GFP foci; time 3,2.413
same,mean effective distance towards centroid,Sla1-GFP foci; time 4,3.293

# — PMC7954794, “Protein context shapes the specificity of SH3 domain-mediated interactions in vivo” (Nature Communications, 2021)
